10 molecules from article PMC12462963, “Quorum Sensing Inhibits Type III‐A CRISPR‐Cas System Activity Through Repressing Positive Regulators SarA and ArcR in Staphylococcus Aureus” can be followed below.

Data set [1] deals with T1, ArcR-His6 (Staphylococcus aureus TZ0912) (UniProt Q2FUY1).
T1 sequence: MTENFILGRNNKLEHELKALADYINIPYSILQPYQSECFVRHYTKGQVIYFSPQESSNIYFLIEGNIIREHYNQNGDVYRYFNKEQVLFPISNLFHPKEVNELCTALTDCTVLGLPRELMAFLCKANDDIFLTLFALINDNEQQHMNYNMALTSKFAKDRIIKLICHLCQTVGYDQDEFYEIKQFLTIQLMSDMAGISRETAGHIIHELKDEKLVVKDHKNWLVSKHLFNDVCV
Nature of the data set: EMSA. Conditions: EMSA: 750 mM NaCl, 50 mM Tris-HCl pH 7.4, 0.5 mM DTT, 0.5 mM EDTA (as printed for binding buffer), 20 ng probe in 20 uL, 30 min 37 C; 6% gel, 0.5x TBE. Background: A gel shift assay detects complexes by their altered migration in electrophoresis.

Data set [2] deals with T2, ArcR-His6 (Staphylococcus aureus TZ0912, UniProt Q2FUY1 1-234).
T2 sequence: T1 sequence
The data set is described as follows: EMSA; 7.2 uM; EMSA: 750 mM NaCl, 50 mM Tris-HCl pH 7.4, 0.5 mM DTT, 0.5 mM EDTA (as printed for binding buffer), 20 ng probe in 20 uL, 30 min 37 C; 6% gel, 0.5x TBE. Conditions: protein: recombinant; tags: His6 (pET28a NdeI/XhoI); chain copies: 2; label: 5'-FAM; blunt.

Data set [3] deals with T2, ArcR-His6. The data set is described as follows: EMSA; EMSA: 750 mM NaCl, 50 mM Tris-HCl pH 7.4, 0.5 mM DTT, 0.5 mM EDTA (as printed for binding buffer), 20 ng probe in 20 uL, 30 min 37 C; 6% gel, 0.5x TBE. Particulars: protein: recombinant; tags: His6 (pET28a NdeI/XhoI); chain copies: 2; label: 5'-FAM; blunt.
For a further data set, the target named is T3, AgrA-His6 (Staphylococcus aureus TZ0912, UniProt Q5HEG2 1-238).
T3 sequence: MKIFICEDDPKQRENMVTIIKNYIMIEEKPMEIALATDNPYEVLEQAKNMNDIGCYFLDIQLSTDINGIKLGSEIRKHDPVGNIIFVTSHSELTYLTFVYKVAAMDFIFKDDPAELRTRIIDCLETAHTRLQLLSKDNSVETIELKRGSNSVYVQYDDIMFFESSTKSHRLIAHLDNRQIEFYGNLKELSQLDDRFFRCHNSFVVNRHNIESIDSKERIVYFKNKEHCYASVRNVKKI
Nature of the data set: EMSA; shift from 0.25 uM; EMSA: 750 mM NaCl, 50 mM Tris-HCl pH 7.4, 0.5 mM DTT, 0.5 mM EDTA (as printed for binding buffer), 20 ng probe in 20 uL, 30 min 37 C; 6% gel, 0.5x TBE. Particulars: protein: recombinant; tags: His6 (pET28a NdeI/XhoI); chain copies: 2; label: 5'-FAM; blunt.

In the case of “CATATATAATAAGTATTTAATTTTAATATATTTAAACTAATAATAATCAAATATACACTATTAACTGAAGATTTCATTGACTTGACATTTATTAAACTTT (double strand) [Pcrispr1-276-177]”, the binding result in data set [1] is reported as “no binding”.

In the case of “GGGAGAACTAGAGATAGAATTTGGAAAAAGATTGTTGTAAATAAAATTATTAATCAATCAAAATGTTTAGAAAACAATTTACATAATGAGAATGTGAAGTTAT (double strand) [Pcas-222-123 (Table S2: -241-142)]”, the binding entry in data set [1] was “no binding”.

Turning to “ATATAGTAGCATGGTGTTAGTTGTCACAGTTTTTGACAGCCAAAATAACACTTGAACCTTTGTGGTTATGCTATTTATTAAAGTATCT (double strand) [Pcrispr1+25+112]”, the binding entry in data set [1] was “no binding”.

B1: Pcrispr1-26+24 (dsDNA)
DNA 1: CTTAATATATAGAAAATTATCATAATATTTGTCAAAAAAAGTGACATTTC
DNA 2: GAAATGTCACTTTTTTTGACAAATATTATGATAATTTTCTATATATTAAG
For B1, the binding result with ArcR-His6 [2] is reported as “binds”.

B2: Pcas-133-118 (Table S2: -152-137) (dsDNA)
DNA 1: TGTGAAGTTATTAGTA
DNA 2: TACTAATAACTTCACA
Turning to B2, the binding result with ArcR-His6 [3] is listed as “no binding”.

B3: Pcas-132-113 (Table S2: -151-132) (dsDNA)
DNA 1: GTGAAGTTATTAGTAAACTT
DNA 2: AAGTTTACTAATAACTTCAC
On to B3, for which the binding result in the data set with ArcR-His6 [2] was “no binding”.

B4: agr P2 promoter (dsDNA)
DNA 1: TACATTTAACAGTTAAGTATTTATTTCCTACAGTTAGGCAATATAATG
DNA 2: CATTATATTGCCTAACTGTAGGAAATAAATACTTAACTGTTAAATGTA
Turning to B4, the binding result with AgrA-His6 is “binds”.

B5: Pcas-142-103 (Table S2: -161-122) (dsDNA)
DNA 1: TAATGAGAATGTGAAGTTATTAGTAAACTTAGCAAAAGAT
DNA 2: ATCTTTTGCTAAGTTTACTAATAACTTCACATTCTCATTA
With B5, the binding result in the data set with ArcR-His6 [2] is recorded as “binds”.

B6: Pcas-137-108 (Table S2: -156-127) (dsDNA)
DNA 1: AGAATGTGAAGTTATTAGTAAACTTAGCAA
DNA 2: TTGCTAAGTTTACTAATAACTTCACATTCT
With B6, the binding result with ArcR-His6 [2] was “binds”.

B7: Pcrispr1+4+20 (dsDNA)
DNA 1: TGTCAAAAAAAGTGACA
DNA 2: TGTCACTTTTTTTGACA
B7: the binding result with ArcR-His6 [3] was “no binding”.
